In article PMC10786891, “Massively parallel profiling of RNA-targeting CRISPR-Cas13d” one finds Kd data, which are given here for 15 molecules.

T1: EsCas13d, nuclease-dead (Eubacterium siraeum, UniProt B0MS50, R295A;H300A;R849A;H854A)
T1 sequence: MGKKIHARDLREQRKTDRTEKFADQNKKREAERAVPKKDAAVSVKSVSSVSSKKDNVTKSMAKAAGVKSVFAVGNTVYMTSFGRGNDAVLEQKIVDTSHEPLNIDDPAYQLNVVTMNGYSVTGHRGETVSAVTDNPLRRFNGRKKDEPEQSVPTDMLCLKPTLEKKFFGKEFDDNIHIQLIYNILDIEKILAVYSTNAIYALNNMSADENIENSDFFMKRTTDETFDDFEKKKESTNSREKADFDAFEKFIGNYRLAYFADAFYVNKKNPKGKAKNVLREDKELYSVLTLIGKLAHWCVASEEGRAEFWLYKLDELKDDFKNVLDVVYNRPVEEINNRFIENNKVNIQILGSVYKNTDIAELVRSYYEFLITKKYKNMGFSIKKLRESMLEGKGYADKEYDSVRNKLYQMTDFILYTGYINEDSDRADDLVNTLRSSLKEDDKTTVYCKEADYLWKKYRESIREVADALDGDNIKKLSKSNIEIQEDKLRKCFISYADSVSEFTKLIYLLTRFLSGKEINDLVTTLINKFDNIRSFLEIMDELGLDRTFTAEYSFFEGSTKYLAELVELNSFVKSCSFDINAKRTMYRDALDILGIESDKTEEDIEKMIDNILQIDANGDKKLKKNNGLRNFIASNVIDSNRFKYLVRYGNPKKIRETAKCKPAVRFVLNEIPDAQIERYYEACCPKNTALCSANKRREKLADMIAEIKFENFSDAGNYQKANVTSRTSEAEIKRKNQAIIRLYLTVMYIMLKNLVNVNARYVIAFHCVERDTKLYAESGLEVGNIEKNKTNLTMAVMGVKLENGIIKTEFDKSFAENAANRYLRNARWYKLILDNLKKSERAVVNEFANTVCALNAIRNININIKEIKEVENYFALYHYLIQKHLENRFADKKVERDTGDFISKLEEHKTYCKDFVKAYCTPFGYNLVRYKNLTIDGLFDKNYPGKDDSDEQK

B1: target 1 insC 3' of 11,insU 3' of 6 (mixed)
RNA 1: CACCCGUGCAAAAAUGCAGGGGUCUAAAACUGAGCGGAUAACCUCUCUAUGG
RNA 2: GGGAAUGGAUCCACAUCUACGAAUUCGUACCAUAGAGAGGUCUAUCCUGCUCACCGAGAUCGGAAGAGCACACGU
B2: target 1 U10A,A16C (mixed)
RNA 1: B1 RNA 1
RNA 2: GGGAAUGGAUCCACAUCUACGAAUUCGUACCAUAGCGAGGUAAUCCGCUCACCGAGAUCGGAAGAGCACACGU
B3: target 1 insC 3' of 12 (mixed)
RNA 1: B1 RNA 1
RNA 2: GGGAAUGGAUCCACAUCUACGAAUUCGUACCAUAGAGAGGCUUAUCCGCUCACCGAGAUCGGAAGAGCACACGU
B4: target 1 insG 3' of 7,insG 3' of 1 (mixed)
RNA 1: B1 RNA 1
RNA 2: GGGAAUGGAUCCACAUCUACGAAUUCGUACCAUAGAGAGGUUAUCGCGCUCAGCCGAGAUCGGAAGAGCACACGU
B5: target 1 insG 3' of 7,insA 3' of 2 (mixed)
RNA 1: B1 RNA 1
RNA 2: B4 RNA 2 with G53A
B6: target 1 insA 3' of 21,insU 3' of 18 (mixed)
RNA 1: B1 RNA 1
RNA 2: GGGAAUGGAUCCACAUCUACGAAUUCGUACCAAUAUGAGAGGUUAUCCGCUCACCGAGAUCGGAAGAGCACACGU
B7: target 1 insA 3' of 15,insC 3' of 13 (mixed)
RNA 1: B1 RNA 1
RNA 2: B6 RNA 2 with A33U, U34A, A35G, U36A, G39A, A40G, G41C
B8: target 1 insU 3' of 20,insG 3' of 11 (mixed)
RNA 1: B1 RNA 1
RNA 2: B6 RNA 2 with A33U, U36G, G37A, A38G, G39A, A40G, G42U, U43G
B9: target 1 insA 3' of 19,insU 3' of 15 (mixed)
RNA 1: B1 RNA 1
RNA 2: B6 RNA 2 with A33U, U34A, U36G, G37A, A38G, G39U
B10: target 1 del11 (mixed)
RNA 1: B1 RNA 1
RNA 2: GGGAAUGGAUCCACAUCUACGAAUUCGUACCAUAGAGAGGUAUCCGCUCACCGAGAUCGGAAGAGCACACGU
B11: target 1 del3,del7 (mixed)
RNA 1: B1 RNA 1
RNA 2: GGGAAUGGAUCCACAUCUACGAAUUCGUACCAUAGAGAGGUUAUCGCCACCGAGAUCGGAAGAGCACACGU
B12: target 1 insU 3' of 21,insG 3' of 9 (mixed)
RNA 1: B1 RNA 1
RNA 2: B6 RNA 2 with A32U, U36G, G37A, A38G, G39A, A40G, G42U, U44A, A45G
B13: target 1 C4G,U11C (mixed)
RNA 1: B1 RNA 1
RNA 2: B2 RNA 2 with C36A, U41C, A42U, C48G
B14: target 1 insG 3' of 7,insC 3' of 1 (mixed)
RNA 1: B1 RNA 1
RNA 2: B4 RNA 2 with G53C
B15: target 1 U10G,A14G (mixed)
RNA 1: B1 RNA 1
RNA 2: B2 RNA 2 with C36A, A38G, A42G

Substitutions are numbered along the chain they refer to. In names and notes the source's numbering stands.

This data set concerns the target T1, EsCas13d, nuclease-dead. Nature of the data set: crRNA (strand 1, pre-loaded); Mg2+; 40 mM Tris-HCl pH 7.5, 150 mM NaCl, 6 mM MgCl2, 1 mM DTT, 0.1% Tween-20, 0.2 mg/ml BSA; 25 C; 10 min per concentration, then washed. The following applies: tags: His6-TwinStrep-SUMO cleaved; N-terminal SNAP kept (SNAP-Surface 488); label: 3' end held by stalled T7 RNA polymerase.
As to B1, the Kd is 69 ± 8 nM.

In turn, B2 yielded a Kd of 68 ± 10 nM.

Regarding B3, the Kd was found to be 8.3 ± 0.5 nM.

Regarding B4, binding was characterised by a dissociation constant (Kd) of 6.65 ± 0.35 nM.

B5: the Kd worked out at 6.36 ± 0.31 nM.

Consider B6, for which the Kd is 46 ± 7 nM.

The molecule B7 had a Kd of 16.4 ± 2.3 nM.

Regarding B8, the Kd was 51 ± 12 nM.

On to B9, for which the Kd was determined as 23.2 ± 2.6 nM.

Molecule B10 came in with a Kd of 15.9 ± 0.9 nM.

For B11, the Kd came out at 4.94 ± 0.21 nM.

As for B12, the Kd was found to be 77 ± 19 nM.

As to B13, binding was characterised by a dissociation constant (Kd) of 9 ± 0.8 nM.

Molecule B14 came in with a Kd of 7.6 ± 0.5 nM.

Molecule B15 came in with a Kd of 23.3 ± 1.3 nM. Compared with the last molecule, the Kd is about 3.1-fold higher.
